Assay results taken from US20260250381A1.
Positions count from the first letter of the chain named.

T1: human TREM2 (human) (UniProt Q9NZC2)
T1 sequence (looked up): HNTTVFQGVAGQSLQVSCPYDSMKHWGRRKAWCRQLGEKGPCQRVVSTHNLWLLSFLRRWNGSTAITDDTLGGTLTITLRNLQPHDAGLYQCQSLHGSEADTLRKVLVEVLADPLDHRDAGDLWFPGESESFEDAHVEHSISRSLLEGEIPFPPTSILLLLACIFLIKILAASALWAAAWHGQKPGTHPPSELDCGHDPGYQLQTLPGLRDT

B1: 6E7 variant V75 (antibody, V domains shown)
VH: EVQLVQSGAEVKKPGESLKISCKGSGYSFTSYWIAWVRQMPGKGLEWMGIIYPGDSDTRYSPSFQGQVTISADKSISTAYLQWSSLKASDTAMYFCARGRTFYYDSSDYFDYWGQGTLVTVSS
VL: DIQMTQSPSSVSASVGDRVTITCRASQGISSWLAWYQQKPGKAPKLLIYAASSLQAGVPSRFSGSGSGTDFTLTISSLQPEDFATYFCQQADSYPRTFGQGTKLEIK
B2: 6E7 variant V76 (antibody, V domains shown)
VH: B1 VH with T30G, S63E, G99Q, F110S
VL: B1 VL with A56K, T69R, Y94F
B3: 6E7 variant V14 (antibody, V domains shown)
VH: B1 VH with T30G, S56Q
VL: B1 VL with S53R, A56N, Y94F
B4: 6E7 variant V85 (antibody, V domains shown)
VH: B1 VH with T30R, I50T, G99S
VL: B1 VL with L54R, A56N, Y94F
B5: 6E7 variant V27 (antibody, V domains shown)
VH: B1 VH with S61A, A97V, G99S
VL: B1 VL with A56R, Y94F
B6: 6E7 variant V5 (antibody, V domains shown)
VH: B1 VH with I50T, G99Q
VL: B1 VL with A56N, Y94H
B7: 6E7 variant V77 (antibody, V domains shown)
VH: B1 VH with G99Q
VL: B1 VL with L54R, A56N, Y94F
B8: 6E7 variant V15 (antibody, V domains shown)
VH: B1 VH with T30A, I50T, G99S
VL: B1 VL with S53W, A56N
B9: 6E7 variant V26 (antibody, V domains shown)
VH: B1 VH with A35G, I50T, G99Q, F102M, Y112A
VL: B1 VL with A56R
B10: 6E7 variant V4 (antibody, V domains shown)
VH: B1 VH with T30G, Y60V, G99S
VL: B1 VL with S53R, A56N
B11: 6E7 variant V3 (antibody, V domains shown)
VH: B1 VH with T30A, G66D
VL: B1 VL with L54R, A56N, S93R, Y94F
B12: 6E7 variant V87 (antibody, V domains shown)
VH: B1 VH with T30R, T58V, S63D, G99S
VL: B1 VL with A56W, Y94F
B13: 6E7 variant V89 (antibody, V domains shown)
VH: B1 VH with G99Q
VL: B1 VL with A56N, Y94H
B14: 6E7 variant V13 (antibody, V domains shown)
VH: B1 VH with T30G, P62A
VL: B1 VL with A56G, Y94M
B15: 6E7 variant V28 (antibody, V domains shown)
VH: B1 VH with T30Q, I50T, G99Q, Y103F
VL: B1 VL with A56S, Y94L
B16: 6E7 variant V24 (antibody, V domains shown)
VH: B1 VH with T58V, G99S
VL: B1 VL with A56K, Y94F, R96H
B17: 6E7 variant V16 (antibody, V domains shown)
VH: B1 VH with F29M, S56G, G99S
VL: B1 VL with S53N, A56N, Y94F
B18: 6E7 variant V17 (antibody, V domains shown)
VH: B1 VH with T30G, G99S
VL: B1 VL with L54R, A56N, Y94S
B19: 6E7 variant V88 (antibody, V domains shown)
VH: B1 VH with T30G, G99Q
VL: B1 VL with S53R, A56R, Y94S
B20: 6E7 variant V84 (antibody, V domains shown)
VH: B1 VH with S28G, G99Q, F110S
VL: B1 VL with A50G, A56N, Y94F
B21: 6E7 variant V25 (antibody, V domains shown)
VH: B1 VH with T30G, I50L, G99S
VL: B1 VL with Q55A, A56N, Y94M
B22: 6E7 variant V29 (antibody, V domains shown)
VH: B1 VH with T30K, G99Q
VL: B1 VL with A56N, Y94F
B23: 6E7 variant V86 (antibody, V domains shown)
VH: B1 VH with T30G, I34L, Q65E, G99S
VL: B1 VL with L54R, A56N, Y94F

Molecular target: T1, human TREM2 (human)
Test: 1st screen, 10 nM Ab

Going from B1 to B2, the Binding Signal (fold over 6E7 parental antibody) falls from 4.64 fold to 4.57 fold.

Going from B3 to B4, the Binding Signal (fold over 6E7 parental antibody) rises from 4.71 fold to 5.41 fold.

Going from B5 to B6, the Binding Signal (fold over 6E7 parental antibody) falls from 5.5 fold to 2.73 fold.

First: B7
Second: B8
The Binding Signal (fold over 6E7 parental antibody) of the first is lower: 1.43 fold for the first, 5.23 fold for the second.

First: B9
Second: B10
The Binding Signal (fold over 6E7 parental antibody) of the first is lower: 3.57 fold for the first, 6 fold for the second.

Going from B11 to B12, the Binding Signal (fold over 6E7 parental antibody) rises from 1.97 fold to 3.84 fold.

Compared with B13, B14 is lower in Binding Signal (fold over 6E7 parental antibody): 1.33 fold for the first, 1.31 fold for the second.

Compared with B15, B16 is lower in Binding Signal (fold over 6E7 parental antibody): 3.08 fold for the first, 2.64 fold for the second.

Compared with B17, B18 is higher in Binding Signal (fold over 6E7 parental antibody): 4.01 fold for the first, 5.37 fold for the second.

Compared with B19, B20 is lower in Binding Signal (fold over 6E7 parental antibody): 4.92 fold for the first, 1.44 fold for the second.

Compared with B21, B22 is lower in Binding Signal (fold over 6E7 parental antibody): 4.23 fold for the first, 1.53 fold for the second.

B23 gave a Binding Signal (fold over 6E7 parental antibody) of 4.8 fold.

Molecular target: T1, human TREM2 (human)
Test: 2nd screen, 2 nM Ab

First: B1
Second: B2
The Binding Signal (fold over 6E7 parental antibody) of the first is lower: 3.74 fold for the first, 4.34 fold for the second.

First: B3
Second: B4
The Binding Signal (fold over 6E7 parental antibody) of the first is lower: 2.57 fold for the first, 5.41 fold for the second.

Going from B5 to B6, the Binding Signal (fold over 6E7 parental antibody) falls from 5.67 fold to 1.25 fold.

First: B7
Second: B8
The Binding Signal (fold over 6E7 parental antibody) of the first is lower: 0.83 fold for the first, 4.72 fold for the second.

First: B9
Second: B10
The Binding Signal (fold over 6E7 parental antibody) of the first is lower: 2.83 fold for the first, 5.88 fold for the second.

First: B11
Second: B12
The Binding Signal (fold over 6E7 parental antibody) of the first is lower: 1.95 fold for the first, 4.86 fold for the second.

First: B13
Second: B14
The Binding Signal (fold over 6E7 parental antibody) of the first is lower: 0.94 fold for the first, 1.15 fold for the second.

Going from B15 to B16, the Binding Signal (fold over 6E7 parental antibody) falls from 2.63 fold to 1.42 fold.

Compared with B17, B18 is higher in Binding Signal (fold over 6E7 parental antibody): 3.57 fold for the first, 4.22 fold for the second.

Compared with B19, B20 is lower in Binding Signal (fold over 6E7 parental antibody): 5.57 fold for the first, 1.45 fold for the second.

Compared with B21, B22 is lower in Binding Signal (fold over 6E7 parental antibody): 3.15 fold for the first, 0.84 fold for the second.

In the case of B23, the Binding Signal (fold over 6E7 parental antibody) is reported as 5.17 fold.

Molecular target: T1, human TREM2 (human)
Test: 2nd screen, 10 nM Ab

First: B1
Second: B2
The Binding Signal (fold over 6E7 parental antibody) of the first is lower: 4.52 fold for the first, 4.93 fold for the second.

Going from B3 to B4, the Binding Signal (fold over 6E7 parental antibody) rises from 4.64 fold to 5.37 fold.

Going from B5 to B6, the Binding Signal (fold over 6E7 parental antibody) falls from 5.69 fold to 2.84 fold.

Compared with B7, B8 is higher in Binding Signal (fold over 6E7 parental antibody): 1.38 fold for the first, 4.78 fold for the second.

Compared with B9, B10 is higher in Binding Signal (fold over 6E7 parental antibody): 3.47 fold for the first, 5.51 fold for the second.

Compared with B11, B12 is higher in Binding Signal (fold over 6E7 parental antibody): 2.24 fold for the first, 3.93 fold for the second.

Compared with B13, B14 is lower in Binding Signal (fold over 6E7 parental antibody): 1.46 fold for the first, 1.35 fold for the second.

First: B15
Second: B16
The Binding Signal (fold over 6E7 parental antibody) of the first is higher: 3.61 fold for the first, 2.9 fold for the second.

Compared with B17, B18 is higher in Binding Signal (fold over 6E7 parental antibody): 4.04 fold for the first, 5.51 fold for the second.

Compared with B19, B20 is lower in Binding Signal (fold over 6E7 parental antibody): 5.3 fold for the first, 1.62 fold for the second.

Compared with B21, B22 is lower in Binding Signal (fold over 6E7 parental antibody): 4.7 fold for the first, 1.67 fold for the second.

In the case of B23, the Binding Signal (fold over 6E7 parental antibody) is reported as 5.02 fold.
